System: T1, CC(C)(COP(=O)(O)OP(=O)(O)OC[C@H]1O[C@@H](n2cnc3c(N)ncnc32)[C@H](O)[C@@H]1OP(=O)(O)O)[C@@H](O)C(=O)NCCC(=O)NCCSC(=O)c1ccc2c(ccc3ccccc32)c1
T1 construct: codon-optimized gene in pASG-IBA103, C-terminal twin-Strep-tag, E. coli BL21(DE3); 72 kDa monomer; FMN, FAD, [4Fe-4S]; primers encode N-terminal MKLFEPIK and C-terminal LAALH
Assay: LC/MS of dihydro-2-phenanthroyl-CoA formation, initial rates
Assay type: biochemical, uncultured Desulfobacterium sp.
Details: dithionite-reduced methyl viologen as electron donor, 1 mM NADH, 50 µM FMN, 1 mM FAD, 50 mM HEPES pH 7.5, 30 °C, anoxic, substrate varied 2-100 µM
Excerpt: LC/MS of dihydro-2-phenanthroyl-CoA formation, initial rates on 2-phenanthroyl-CoA reductase

Which results are given for “2-phenanthroyl-CoA reductase (uncultured Desulfobacterium sp.)”?
Km: 1.8 µM; Vmax: 7.9 µmol/min/mg
